Columns and labels:
[1] = biological target: phi15 RNA polymerase (Pseudomonas phage phi15); assay: cell-based or functional assay
[2] = biological target: P. putida RNA polymerase (Pseudomonas putida); assay: cell-based or functional assay

Q: For Pf-10 lysozyme (enzyme), which decrease in msfGFP output (leakiness of the phi15 RNAP; P. putida, 4 mM Rha) [1] is on record?
A: The decrease in msfGFP output (leakiness of the phi15 RNAP; P. putida, 4 mM Rha) was 84%.

Q: For Phi15 GP16 RNA polymerase inhibitor, which cell growth (OD600) of P. putida after induction with 10 mM Rha [2] is on record?
A: The cell growth (OD600) of P. putida after induction with 10 mM Rha was 1.4 OD600.

Q: With “phi15 lysozyme (AA1-9>Pf-10 (AA1-10)) (enzyme)” as the substance, how does the leaky expression (msfGFP; P. putida, 5 mM Rha) (nM 5(6)-FAM/OD600) [1] read?
A: Its leaky expression (msfGFP; P. putida, 5 mM Rha) (nM 5(6)-FAM/OD600) is 23.

Q: How did the leaky expression (msfGFP; P. putida, 5 mM Rha) (nM 5(6)-FAM/OD600) [1] turn out when phi15 lysozyme (G3R) (enzyme) was run?
A: The leaky expression (msfGFP; P. putida, 5 mM Rha) (nM 5(6)-FAM/OD600) was 57.

Q: For phi15 lysozyme (G3RQ) (enzyme), which fold induction (FITC-A of +RNAP,-lys against -RNAP,+lys), P. aeruginosa [1] is on record?
A: Its fold induction (FITC-A of +RNAP,-lys against -RNAP,+lys), P. aeruginosa is 130 fold.

Q: And the fold induction (FITC-A of +RNAP,-lys against -RNAP,+lys), P. putida [1]?
A: Its fold induction (FITC-A of +RNAP,-lys against -RNAP,+lys), P. putida is 9.64 fold.

Q: What about the induced (%) cells with FITC-A above 10^4, P. aeruginosa, -RNAP +lys [1] of the same substance?
A: The induced (%) cells with FITC-A above 10^4, P. aeruginosa, -RNAP +lys was 5.94%.

Q: What about the induced (%) cells with FITC-A above 10^4, P. putida, -RNAP +lys [1] of the same substance?
A: The induced (%) cells with FITC-A above 10^4, P. putida, -RNAP +lys was 66.7%.

Q: What about the leaky expression (msfGFP; P. putida, 5 mM Rha) (nM 5(6)-FAM/OD600) [1] of the same substance?
A: Its leaky expression (msfGFP; P. putida, 5 mM Rha) (nM 5(6)-FAM/OD600) is 11.

Q: And the leaky expression from the phi15 RNAP (msfGFP; P. aeruginosa, 5 mM rhamnose) (5(6)-FAM/OD600) [1]?
A: Its leaky expression from the phi15 RNAP (msfGFP; P. aeruginosa, 5 mM rhamnose) (5(6)-FAM/OD600) is 29.

Q: What about the leaky expression from the phi15 RNAP against the wild-type phi15 lysozyme (P. aeruginosa, 5 mM rhamnose) [1] of the same substance?
A: The leaky expression from the phi15 RNAP against the wild-type phi15 lysozyme (P. aeruginosa, 5 mM rhamnose) was 13 fold lower.

Q: What about the median FITC-A, flow cytometry, P. aeruginosa, -RNAP +lys (5 mM Rha) [1] of the same substance?
A: Its median FITC-A, flow cytometry, P. aeruginosa, -RNAP +lys (5 mM Rha) is 527 FITC-A.

Q: And the median FITC-A, flow cytometry, P. putida, -RNAP +lys (5 mM Rha) [1]?
A: Its median FITC-A, flow cytometry, P. putida, -RNAP +lys (5 mM Rha) is 12700 FITC-A.

Q: With phi15 lysozyme (wild-type) (enzyme) as the substance, how does the fold induction (FITC-A of +RNAP,-lys against -RNAP,+lys), P. aeruginosa [1] read?
A: Its fold induction (FITC-A of +RNAP,-lys against -RNAP,+lys), P. aeruginosa is 7.36 fold.

Q: What about the fold induction (FITC-A of +RNAP,-lys against -RNAP,+lys), P. putida [1] of the same substance?
A: Its fold induction (FITC-A of +RNAP,-lys against -RNAP,+lys), P. putida is 4.1 fold.

Q: And the induced (%) cells with FITC-A above 10^4, P. aeruginosa, -RNAP +lys [1]?
A: Its induced (%) cells with FITC-A above 10^4, P. aeruginosa, -RNAP +lys is 77.5%.

Q: What about the induced (%) cells with FITC-A above 10^4, P. putida, -RNAP +lys [1] of the same substance?
A: The induced (%) cells with FITC-A above 10^4, P. putida, -RNAP +lys was 80%.

Q: And the leaky expression (msfGFP; P. putida, 5 mM Rha) (nM 5(6)-FAM/OD600) [1]?
A: The leaky expression (msfGFP; P. putida, 5 mM Rha) (nM 5(6)-FAM/OD600) was 122.

Q: What about the leaky fluorescence with lysozyme induced (P. putida, 4 mM Rha) (nM 5(6)-FAM/OD600) [1] of the same substance?
A: The leaky fluorescence with lysozyme induced (P. putida, 4 mM Rha) (nM 5(6)-FAM/OD600) was 77.

Q: And the median FITC-A, flow cytometry, P. aeruginosa, -RNAP +lys (5 mM Rha) [1]?
A: The median FITC-A, flow cytometry, P. aeruginosa, -RNAP +lys (5 mM Rha) was 33400 FITC-A.

Q: And the median FITC-A, flow cytometry, P. putida, -RNAP +lys (5 mM Rha) [1]?
A: Its median FITC-A, flow cytometry, P. putida, -RNAP +lys (5 mM Rha) is 17800 FITC-A.
